T1: human MAGEB4 (human, UniProt O15481 1-346)
T1 construct: whole, on cells
T1 sequence (looked up): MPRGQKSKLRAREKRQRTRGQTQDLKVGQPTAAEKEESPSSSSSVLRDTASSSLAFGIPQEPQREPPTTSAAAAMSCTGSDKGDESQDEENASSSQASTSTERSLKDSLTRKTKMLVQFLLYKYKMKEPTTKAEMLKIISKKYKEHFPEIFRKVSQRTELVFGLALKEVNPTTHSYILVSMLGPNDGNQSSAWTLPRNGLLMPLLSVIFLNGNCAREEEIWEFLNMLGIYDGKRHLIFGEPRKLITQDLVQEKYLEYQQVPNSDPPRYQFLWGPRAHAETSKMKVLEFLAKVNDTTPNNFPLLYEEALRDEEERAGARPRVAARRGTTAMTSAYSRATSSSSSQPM

T2: Human MAGEB2 (Melanoma-associated antigen B2) (human, UniProt O15479 1-319)
T2 construct: Intracellular antigen detected by IHC in FFPE material: CHO cells transfected with human MAGEB2 (mCherry vector with Myc/DDK tags, or ORF without tags)
T2 sequence: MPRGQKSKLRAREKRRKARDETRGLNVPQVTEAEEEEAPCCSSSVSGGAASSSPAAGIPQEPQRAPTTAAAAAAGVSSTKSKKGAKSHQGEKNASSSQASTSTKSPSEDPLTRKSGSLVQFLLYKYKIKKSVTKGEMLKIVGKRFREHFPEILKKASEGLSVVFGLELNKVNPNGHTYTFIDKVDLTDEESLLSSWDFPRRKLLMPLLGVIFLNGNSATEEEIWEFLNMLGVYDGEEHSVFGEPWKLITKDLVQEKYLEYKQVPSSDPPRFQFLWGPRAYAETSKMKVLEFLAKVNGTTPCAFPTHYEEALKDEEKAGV


Tests used:
human MAGEB4 = target: T1, human MAGEB4; experiment: IHC, FFPE CHO cells transfected with human MAGEB4
From the text: Negative control cells included parental Chinese hamster ovary (CHO) cells, CHO cells stably transfected with mCherry Vector Control (minus Myc/DDK tags), CHO cells stably transfected with mCherry-human DCAF4L2 (plus Myc/DDK tags). The cross-reactivity control cells included CHO cells transfected with mCherry Vector Control (plus Myc/DDK tags) with one of the human MAGE-B or MAGE-A family members (MAGEA1, MAGEA2, MAGEA3, MAGEA4, MAGEA5, MAGEA6, MAGEA8, MAGEA9, MAGEA11, MAGEA12, MAGEB1, MAGEB3, MAGEB4, MAGEB5, MAGEB6, MAGEB10, MAGEB16, MAGEB17, MAGEB18). Positive control cell lines included CHO cells transfected with mCherry Vector (plus Myc/DDK tags) with human MAGE-B2 or CHO cells transfected with mCherry Vector (open reading frame (ORF); minus Myc/DDK tags) with human MAGEB2, and thirteen human cancer cell lines with known endogenous RNA expression level of MAGEB2 (U266B1, T98G, KMM-1, U20S, CFPAC-1, SCaBER, UACC-257, CFPAC-1, VMRC-LCD, NCI-H1703, UM-UC-3, NCI-H1395, NCIH82).
(§1) FFPE samples were sectioned at 4 μm and mounted on positive charged glass slides. After mounting, paraffin sections were air-dried at room temperature. FFPE TMA samples were received as freshly sectioned and mounted on glass slides. The fully automated IHC assay was performed on a Discovery Ultra Stainer (Ventana Medical Systems, Tucson, AZ) using Ventana Anti-Rabbit HQ (cat #760-4815), Ventana Anti-HQ HRP (cat #760-4820), and Ventana Antibody Diluent with Casein (cat #760-219) (Ventana Medical Systems, Tucson, AZ). The slides were baked on the Discovery Ultra Stainer at 60° C. for 8 minutes, de-paraffinized with Ventana Discovery wash (cat #950-510) for 3 cycles (8 minutes each) at 69° C., and underwent cell conditioning (target retrieval) at 95° C. for 16 minutes (for cell arrays) or 32 minutes (tissues or TMAs) in CC1 buffer (cat #950-500). Following this, slides were incubated with Background Sniper (cat #BS966M, Biocare Medical, Pacheco, CA) in a Ventana Option Prep kit (cat #771-751) for 28 minutes, incubated with CM inhibitor (a part of the Ventana DAB kit cat #760-159) for 12 minutes, and incubated for 1 h at RT with MAGE-B2 antibody diluted with Ventana diluent with Casein in a Ventana Prep kit (cat #770-001) (working concentration at 0.1 μg/ml for cell pellet, or 1-5 ug/ml for tissues) or with a matched concentration of isotype control Rabbit IgG1 antibody.

[1] = target: T2, Human MAGEB2 (Melanoma-associated …); experiment: IHC on FFPE SCaBER cells (endogenous MAGEB2)
Protocol: as §1, with “antibody. Following this, slides were incubated with the Ventana Anti-Rabbit HQ (cat #760-4815) for 28 minutes at RT, Ventana Anti-HQ HRP (cat #760-4820) for 28 minutes at RT, and signals detected with Ventana DAB chromogen kit (cat #760-159) for 5 minutes at RT. Slides were counterstained with Ventana Hematoxylin II (cat #5266726001) for 8 minutes and Ventana Bluing reagent (cat #526676900) for 4 minutes. Slides were coverslipped and digitized using an Aperio AT2 scanner (Leica Biosystems Inc, Buffalo Grove, IL).” for “antibody.”

[2] = target: T2, Human MAGEB2 (Melanoma-associated …); experiment: IHC on FFPE NCI-H1395 cells (endogenous MAGEB2)
Protocol: as §1, with “antibody. Following this, slides were incubated with the Ventana Anti-Rabbit HQ (cat #760-4815) for 28 minutes at RT, Ventana Anti-HQ HRP (cat #760-4820) for 28 minutes at RT, and signals detected with Ventana DAB chromogen kit (cat #760-159) for 5 minutes at RT. Slides were counterstained with Ventana Hematoxylin II (cat #5266726001) for 8 minutes and Ventana Bluing reagent (cat #526676900) for 4 minutes. Slides were coverslipped and digitized using an Aperio AT2 scanner (Leica Biosystems Inc, Buffalo Grove, IL).” for “antibody.”

binding result (human MAGEB4)	IHC % Frequency [1] [%]	IHC Intensity [1]	IHC % Frequency [2] [%]	IHC Intensity [2]	Binder
no binding (tested: 0.1 µg/ml)	70	2	0	0	4G17 (antibody, IgG1, V domains shown, Rabbit monoclonal IgG1; Tested as supernatant and as small batch purified antibody; also called MAGE-B2 (4G17); anti-MAGEB2 antibody 4G17) VH: QSLEESGGGLVQPEGSLTLTCTASGVTLSNYYICWVRQAPGKGLEWIGCIDNVNGRTYYASWAKGRFTISKTSSTTGTLQMTSLTAADTATYFCARSLATPLWGPGTLVTVSS VL: DIVMTQTPASVEAAVGGTVTIKCQASQNIDSYLAWYQQKPGQPPKLLIYRASTLASGVPSRFKGSGSGTEFTLTISDLECADAATYYCQSYDDSRSSSFFYGFGGGTEVVVK
no binding (tested: 0.1 µg/ml)	50	2	0	0	1J15 (antibody, IgG1, V domains shown, Rabbit monoclonal IgG1; Tested as supernatant and as small batch purified antibody; also called MAGE-B2 (IJ15); anti-MAGEB2 antibody 1J15) VH: QSLEESGGGLVQPEGSLTLTCTAFGFTLNNYYICWVRQAPGKGLEWIACIDNANGRTYYASWAKGRFTISKTSSTTVTLQMTSLTAADTATYFCARSLSTPLWGPGTLVTVSS VL: DIVMTQTPASVEAAVGGTVTIKCQASQSISSYLSWYQQKPGQPPKLLIYRASTLASGVPSRFRGSGSGTQFTLTISDLECADAATYYCQSYDDSSDNNFFYGFGGGTEVVVR

Second part, the binder before the results:

Binder	binding result (human MAGEB4)	IHC % Frequency [1] [%]	IHC Intensity [1]	IHC % Frequency [2] [%]	IHC Intensity [2]
1I14 (antibody, V domains shown, also called MAGE-B2 (1i14)) VH: QSVEESGGRLVTPGTPLTLTCTISGFSLSSYAMSWVRQAPGKGLEWIGSIGGGGSAVYASWAKGRFTISKTSTTVDLRITSPTTEDTAMYFCGRGFYSIDLWGPGTLVTVSS VL: DVVMTQTPASVEATVGGTVTIKCQSSQSVYDNNALAWYQQNAGQRPRLLIYGASTLASGVPSRFSASGSGTEFTLTISDLECADAATYYCQCTYYVSSYQNDFGGGTEVVVKG	no binding (tested: 0.1 µg/ml)	0	0	0	0
1C3 (antibody, V domains shown, also called MAGE-B2 (IC3); anti-MAGEB2 antibody 1C3) VH: QSLEESGGGLVQPEGSLTLTCTAFGVTLTNYYICWVRQAPGKGLEWVGCIDNANGRTYYASWAKGRFTISKTSSTTGTLQMTSLTAADTATYFCARSLATPLWGPGTLVTVSS VL: DIVMTQTPSSVEAAVGGTVTIKCQASQNISSYLAWYQQKPGQPPKLLIYRASTLASGVPSRFKGSGSGTQFTLTISDLECADAATYYCQSYDDSRSSNFFYAFGGGTEVVVKG	no binding (tested: 0.1 µg/ml)	70	2	0	0

From patent US20250282887A1 (Amgen, published 2025)
